# Assay results taken from the nanobody polyreactivity screen of Harvey et al. (2022).
# Test: yeast display, Sf9 membrane polyspecificity reagent, FACS + sequencing; frameworks hold sequencing errors
# How it was run: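 Nanobodies from a synthetic yeast display library (Saccharomyces cerevisiae BJ5465), induced 36–48 hours with galactose, were stained 1 hour at 4 °C with 10% biotinylated, detergent-solubilized Sf9 membrane reagent, enriched on streptavidin microbeads, then FACS-sorted. Anti-HA (expression) and streptavidin (reagent binding) fluorescence set low and high (top ~1%) gates. Polyreactivity labels come from the gate of origin. Genes were colony-PCR amplified, MiSeq 2 × 250 sequenced and filtered by CDR length.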
row,Sequence,polyreactivity (PSR sort gate)
1,QVQLVESGGGLVQAGGSLRLSCAASGSIFGYNTMGWYRQAPGKERELVAAISRGGSTNYADSVKGRFTISRDNAKNTVYLQMNSLKPEDTAVYYCAKRRWRQTTYSKGYDYWGQGTQVTVSS,high polyreactivity
2,QVQLVESGGGLVQAGGSLRLSCAASGSIFGYNVMGWYRQAPGKERDLVAAITYSGGSTYYADSVKGRFTISRDNAKNTVYLQMNSLKPEDTAVYYCAKVTGRRFPAYGYDHWGQGTQVTVSS,high polyreactivity
3,QVQLVESGGGLVQAGGSLRLSCAASGSIFGYNVMGWYRQAPGKERELVAAISSSTGSTNYADSVKGRFTISRDNAKNTVYLQMNSLKPEDTAVYYCAVDPYVHWTTKLYDYWGQGSQVTVSS,low polyreactivity
4,QVQLVESGGGLVQAGGSLRLSCAASGSIFGYYALGWSRQAPGKERELVAVITWNTGNTYYADSVKGRFTISRDNAKNTVYLEMNSLKPEDTAVYYCAADQTGWGDTYDYWGQGTQVTVSS,low polyreactivity
5,QVQLVESGGGLVQAGGSLRLSCAASGSIFGYYAMGWYRQAPGKEREFVAAIRSSGGSTYYADSVKGRFTISRDNAKNTVYLQMNSLKPEDTAVYYCAAGGYPTFFKYGYWGQGTQVTVSS,high polyreactivity
6,QVQLVESGGGLVQAGGSLRLSCAASGSIFGYYAMGWYRQAPGKEREFVAAISVSGSRTYYADSVKGRFTISRDNAKNTVYLQMNSLKPEYTAVYYCAARVDYRHRYYYWGQGTLVTVSS,high polyreactivity
7,QVQLVESGGGLVQAGGSLRLSCAASGSIFGYYAMGWYRQAPGKERELVAAIRVSGGRTYYADSVKGRFTISRDNAKNTVYLQMNSLKPEDTAVYYCAKSLIPAYEYWGQGTQVTVSS,high polyreactivity
8,QVQLVESGGGLVQAGGSLRLSCAASGSIFGYYAMGWYRQAPGKERELVAAISGNGGNTYYADSVKGRFTISRDNAKNTVYLQMNSLKPEDTAVYYCNRAPGYRGGRYDYWGQGTQVTVSS,high polyreactivity
9,QVQLVESGGGLVQAGGSLRLSCAASGSIFGYYAMGWYRQAPGKERELVAAISRRGGSTYYADSVKGRFTISRDNAKNTVYLQMNSLKPEDTAVYYCAAVGGYASYFHLYYYWGQGTQVTVSS,high polyreactivity
10,QVQLVESGGGLVQAGGSLRLSCAASGSIFGYYAMGWYRQAPGKERELVAAISSSGASTYYADSVKGRFTISRDNAKNTVYLQMNSLKPEDTAVNYCNAARRYPTRGGYWGQGTQVTVSS,high polyreactivity
11,QVQLVESGGGLVQAGGSLRLSCAASGSIFGYYAMGWYRQAPGKERELVAAISWSDGSTYYADSVKGRFTISRDNAKNTVYLQMNMLKPEDTAVYYCAARFTPYITSDDGHYDYWGQGTQVTVSS,low polyreactivity
12,QVQLVESGGGLVQAGGSLRLSCAASGSIFGYYAMGWYRQAPGKERELVAAISWSGGSTYYADSVKGRFTISRDTAKNTVYLQMNSLKPEDTAVYYCAATSRGNDSQKYYYWGQGTQVTVSS,low polyreactivity
13,QVQLVESGGGLVQAGGSLRLSCAASGSIFGYYAMGWYRQAPGKERELVAAISYGGGRTYYADSVKGRFTISRDNAKNTVYLQMNSLKPEDTAVYYCAADVQSRYVGEGDYWGQGTQVTVSS,high polyreactivity
14,QVQLVESGGGLVQAGGSLRLSCAASGSIFGYYAMGWYRQAPGKERELVAAITRVSSTNYADSVKGRFTISRDNAKYTVYLHMNSLKPEDTAVYYCAARTLRYYQGNTWGDDYWGQGTQVTVSS,high polyreactivity
15,QVQLVESGGGLVQAGGSLRLSCAASGSIFGYYAMGWYRQAPGKERELVAAITSGGNTYYADSVKGRFTISRDNAKNTVYLQMNSLKPEDTAVSYCAAEFWYTYPYLVDYWGQGTQVTVSS,low polyreactivity
16,QVQLVESGGGLVQAGGSLRLSCAASGSIFGYYAMGWYRQAPGKERELVAAITTRGGRTYYADSVKGRFTISRDNAKNTVYFQINSLKPEDTAVYYCAARTGRGRYDYWGQGTQVTVSS,high polyreactivity
17,QVQLVESGGGLVQAGGSLRLSCAASGSIFGYYAMGWYRQAPGKERELVAAIWRGDNTYYADSVKGRFTISRDNAKNTVYLQMNSLKPEDTAVYYCAARYWSRRIFREGYWGQGTQVTVSS,low polyreactivity
18,QVQLVESGGGLVQAGGSLRLSCAASGSIFGYYAMGWYRQAPGKERELVAVIRRSSGSTYYADSVKGRITISRDNAKKTVYLQMNSLKPEDTAVFYCASRRYEPIIWHSMDYWGQGTQVTVSS,low polyreactivity
19,QVQLVESGGGLVQAGGSLRLSCAASGSIFGYYAMGWYRQAPGNERELVAAISFSAGNTYYADSVKGRFTISRDNAKNTVYLQMNSLKPEDSAVYYCAADPKYWTGWIWTSGYDYWGQGTQVTVSS,high polyreactivity
20,QVQLVESGGGLVQAGGSLRLSCAASGSIFGYYTMGLYRQAPGKERELVATINWSGGSTYYADSVKGRFTISRDNAKNTVYLQMNSLKPEDTAVYYCAKTRPYLRYWDSSTYDYWGQGTQVTVSS,high polyreactivity
21,QVQLVESGGGLVQAGGSLRLSCAASGSIFGYYTMGWYRQAPGKERELVARISSSGARTYYADSVKGRFTISRDNAKNTVYLQMNSLKPEDTAVYYCNAQFGYRTIYYISQYYEYGYWGQGTQVTVSS,high polyreactivity
22,QVQLVESGGGLVQAGGSLRLSCAASGSIFGYYVMGWYRQAPGKERELVAAISRSGGSTYYADSVKGRFTISRDNAKNTVYLQMNSLIPEATAVYYCAARGTAERDYWGQGNQVTVSS,high polyreactivity

row,Sequence,polyreactivity (PSR sort gate)
1,QVQLVESGGGLVQAGGSLRLSCAASGSIFGYYVMGWYRQAPGKERELVAAITRSGSTYYADSVKGRFTISRDNAKNTVYLQMNSLKPEDTAVYYCAADGSYYWYPHTTYDYWGQGTQVTVSS,low polyreactivity
2,QVQLVESGGGLVQAGGSLRLSCAASGSIFHDYAMGWYRQAAGKERELVAVISTSGGSTYYADSVKGRFTISRDNAKNTVYLQMNSLKPEDTAVYYCAADPFDGYSSSEYDYWGQGTQVTVSS,low polyreactivity
3,QVQLVESGGGLVQAGGSLRLSCAASGSIFHIYAMGWYRQAPGKERELVAAISSGGRTNYADSVKGRFTISRDNAKNTVYLQMNSLKPEDTEVYYCAADWIYLPTRNYRVRVDYWGQGTQVTVSS,high polyreactivity
4,QVQLVESGGGLVQAGGSLRLSCAASGSIFHKYTMGWYRQAPGKERELVAAITRSGGSTYYADSVNGRFTISRDNAKNTVYLQMNSLKAEDTAVYYCNKRYIPWAYDYWGQGTKVTVSS,high polyreactivity
5,QVQLVESGGGLVQAGGSLRLSCAASGSIFHNYDMGCYRQAPGKERELVADISRGGDTNYADSVKGRFTISRDNAKNTVYLQMNSLKPEDTAVYYCSADSADPTEYDYWGQGTQVTVSS,low polyreactivity
6,QVQLVESGGGLVQAGGSLRLSCAASGSIFHSNAMGWYRQAPGKERELVAAISASGGSTYYADSVKGRFTISRDNAKNTVYLQMNSLKPEDTAVYYCNAVSRYYRFSPYYYWGQGTQVTVSS,high polyreactivity
7,QVQLVESGGGLVQAGGSLRLSCAASGSIFHVNAMGWYRQAPGKERELVADISKRGASTYYADSVKGRFTISRDNAKNTVYLQMNSLKPEDTAVYYCAARVVTPRRQWYTYDYWGQGTQVTVSS,high polyreactivity
8,QVQLVESGGGLVQAGGSLRLSCAASGSIFHWYAMGWYRQAPGKERELVAAINWSGGSTYYADSVKGRFTISRDNAKNTVYLQMNSLKPEDTAVYYCNKAYVSRYDYWGQGTQVTVSS,high polyreactivity
9,QVQLVESGGGLVQAGGSLRLSCAASGSIFHYNSMGWDRQAPGKEWGLVASMSSGGRTYYADSVKGRFTISRDNPKNTVYLQMNSLKPDDTAVYYCAAEYYQTTYVWWTYDYYGGQGTQVTVSS,low polyreactivity
10,QVQLVESGGGLVQAGGSLRLSCAASGSIFHYYAMGWYRQAPGKERELVAAINSTGGSRTYYADSVKGRFTISRDNAKNTVYLRMNCLKPEDTAVYYCAADYRVVWRAYDYWGQGTQVTVSS,low polyreactivity
11,QVQLVESGGGLVQAGGSLRLSCAASGSIFHYYAMGWYRQAPGKERELVAAISSVGSTYYADSVKGRFTISRDNAKNTVYLQINSLKPEDTAVYYCAAEAYAKRYVDRYSWYYYWGQGTQVTVSS,high polyreactivity
12,QVQLVESGGGLVQAGGSLRLSCAASGSIFHYYTMGWYRQAPGKERELVAGISRSGGSTYYADSVKGRFTISRDNAKNTVYLQMNSLKPEDTAVYYCAAARYPYLYAYGYWGQGTQVTVSS,high polyreactivity
13,QVQLVESGGGLVQAGGSLRLSCAASGSIFIFNTMGWYRQAPGKETELVASISSSGSTYYADSVKGRFTISRANAKNTVYLQMNSLKPEDTAVYYCAADAEDRPSWPGNSEYEYWGQGTQVTVSS,low polyreactivity
14,QVQLVESGGGLVQAGGSLRLSCAASGSIFIGYAMGWYRQAPGKERELVAAISQSGGRTYYADSVKGRFTISRDNAKNTVYLQMNSLKPEDTAVYYCNKVTKSYFIYDYWGQGTQVTVSS,high polyreactivity
15,QVQLVESGGGLVQAGGSLRLSCAASGSIFIGYAMGWYRQAPGKERELVAAITSAGSTYADSVKGRFTISRDNAKNTGYLQRNSVKPEDTAVYYCAARFFLVTLDYWGQGTQVTVSS,low polyreactivity
16,QVQLVESGGGLVQAGGSLRLSCAASGSIFIINAMGWYIQAPGKERELVAAINNGVNTYYADSVKGRFTISRDNAKNTVYLQMNSLKPEDTAVYYCAADYGDPRVNEYDYWGQGTQVTVSS,low polyreactivity
17,QVQLVESGGGLVQAGGSLRLSCAASGSIFIINAMGWYRQAPGKERELVAAITTSGGRTYYADSVKGRFTISRDNAKNTVYLQMNSLKPEDTAVYSCASSHYGSTGNYWGQGTQVTVSS,low polyreactivity
18,QVQLVESGGGLVQAGGSLRLSCAASGSIFIINTMGWYRQAPGKERELVAAISWGGTDTNYADSVKGRFTISRDNAKNTVYLQMNSLKPEDTAVYYCNTDQDLVRSYDYWGHGTQVTVSS,low polyreactivity
19,QVQLVESGGGLVQAGGSLRLSCAASGSIFIQYAMGWYRQAPGKERELVAAINSSGGRTYYADSVKGRFTISRDNAKNTVYLQMNSLKPEDTAVYYCAADHGSSFDWGQGTQVTVSS,low polyreactivity
20,QVQLVESGGGLVQAGGSLRLSCAASGSIFIRNAKGWYRQAPGKERELVAAISTIGGRTYYADSVKGRFTISRDNAKNTVYLQMNSLKPEDTAVYYCAAEQGTPSTNWYDYWGQGTQVTVSS,low polyreactivity
21,QVQLVESGGGLVQAGGSLRLSCAASGSIFIRNAMGWYRQAPGKERELVAAISTIGGRTYYADSVKGRFTISRDNAKNTVYLQMNSLNPEDTAVYYCAAEQGTPSTNWYDYWGQGTQVTVSS,low polyreactivity
